Six molecules from patent publication US20140005119A1, “COMPOSITIONS AND METHODS FOR INHIBITING THE ACTIVITY OF P110a MUTANT PROTEINS” (Case Western Reserve University, priority 2012, published 2014) can be followed below.

Where no end group is shown, it is not given here.

Data set [1] deals with T1, IRS1-p110α E545K interaction in DLD1 cells (Homo sapiens, UniProt P35568).
T1 construct: endogenous in cells; host or cells: DLD1 p110α E545K 3×FLAG knock-in cells (rAAV gene targeting of the endogenous allele)
T1 sequence (P35568 1-1242): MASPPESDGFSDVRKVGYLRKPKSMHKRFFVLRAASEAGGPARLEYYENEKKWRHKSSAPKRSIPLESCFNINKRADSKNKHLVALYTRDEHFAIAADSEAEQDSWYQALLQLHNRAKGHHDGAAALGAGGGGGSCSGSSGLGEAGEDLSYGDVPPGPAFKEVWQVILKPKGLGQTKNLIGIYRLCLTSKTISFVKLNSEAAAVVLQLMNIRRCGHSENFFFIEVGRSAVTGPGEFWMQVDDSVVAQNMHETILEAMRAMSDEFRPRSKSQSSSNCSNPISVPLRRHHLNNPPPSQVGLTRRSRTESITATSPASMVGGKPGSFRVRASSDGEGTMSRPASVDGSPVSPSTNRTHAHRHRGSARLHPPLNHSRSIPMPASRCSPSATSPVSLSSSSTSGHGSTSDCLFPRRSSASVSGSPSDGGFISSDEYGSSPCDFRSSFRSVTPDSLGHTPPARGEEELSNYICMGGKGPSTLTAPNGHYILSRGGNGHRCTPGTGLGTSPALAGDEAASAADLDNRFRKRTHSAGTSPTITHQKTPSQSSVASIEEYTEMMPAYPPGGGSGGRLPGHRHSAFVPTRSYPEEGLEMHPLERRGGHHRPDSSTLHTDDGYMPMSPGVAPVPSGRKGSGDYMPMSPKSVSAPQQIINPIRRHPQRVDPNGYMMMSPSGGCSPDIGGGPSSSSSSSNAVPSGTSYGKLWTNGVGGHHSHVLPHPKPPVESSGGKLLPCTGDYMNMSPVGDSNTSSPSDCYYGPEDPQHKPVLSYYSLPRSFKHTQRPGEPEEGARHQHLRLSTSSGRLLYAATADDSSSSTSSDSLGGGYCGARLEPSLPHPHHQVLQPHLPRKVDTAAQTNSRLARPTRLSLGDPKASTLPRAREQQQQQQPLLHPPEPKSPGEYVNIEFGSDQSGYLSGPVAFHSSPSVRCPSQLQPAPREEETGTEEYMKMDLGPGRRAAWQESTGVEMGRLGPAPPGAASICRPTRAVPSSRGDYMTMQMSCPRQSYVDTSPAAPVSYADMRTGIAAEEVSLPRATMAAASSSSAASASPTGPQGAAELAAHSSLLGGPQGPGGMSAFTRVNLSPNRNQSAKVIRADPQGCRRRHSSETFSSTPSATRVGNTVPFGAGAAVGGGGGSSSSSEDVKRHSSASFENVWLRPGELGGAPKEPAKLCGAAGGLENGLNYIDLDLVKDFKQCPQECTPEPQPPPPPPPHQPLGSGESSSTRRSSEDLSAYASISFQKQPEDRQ
Kind of data set: Co-IP after peptide added to culture medium of p110α E545K 3×FLAG KI DLD1 cells. It counts as cell-based. Details: dose or concentration left out as unconfirmed. As to conditions: peptide added to cell culture medium for 16 hr. The method, then:
FIG. 4(A-F) illustrate: (A) Schematic diagram of linear and stapled WT and mutant peptides derived from p110α (SEQ ID NOs: 5, 6, 7 and 8). (B) Immunoblots of cell lysates immunoprecipitated with beads conjugated with anti-FLAG antibodies and then blotted with the indicated antibodies. Linear or stapled WT and mutant peptide were added into culture medium of the p110α E545K 3×FLAG KI cells for 16 hr. (C) Immunoblots of cell lysates immunoprecipitated with anti-p110α antibodies and then blotted with the indicated antibodies. Vaco481 CRC cells were treated with the stapled mutant peptides at the indicated concentration. (D) Immunoblots of cell lysates blotted with the indicated antibodies. The indicated cell lines were treated with the stapled mutant peptide. (E) Immunoblots of cell lysates blotted with the indicated antibodies. The indicated cancer cell lines were treated or untreated with stapled WT or mutant peptide at […] for 2 hr. (F) Immunoblots of cell lysates were blotted with the indicated antibodies. The indicated cancer cell lines were treated with or without […] of stapled mutant peptide for 2 hr.
(§1) For Co-immunoprecipitation (Co-IP), cells were harvested, washed with PBS, and then lysed in IP buffer (50 mMTris [pH 7.4], 150 mMNaCl, 5 mMEDTA [pH 8.0], 0.5% NP40, 1 mM PMSF, complete Protease Inhibitor Cocktail tablet [Roche]; supplemented with phosphatase inhibitors [1 mM Na3VO4, 20 mM NaF, 0.1 mM b-glycerophosphate, 20 mM sodium pyrophosphate] when necessary). For immunoblotting (IB) of phospho-specific proteins, unless stated otherwise, cells were lysed in urea buffer (100 mM NaH2PO4, 10 mM Tris-HCl, 8 M Urea, 1 mM Na3VO4, 20 mM NaF, 0.1 mM β-glycerophosphate, 20 mM sodium pyrophosphate, supplemented with complete Protease Inhibitor Cocktail tablet [Roche], pH 8.0). Lysates were then cleared by centrifugation (14,000 rpm, 10 min) and protein concentration in supernatants was determined with a BCA protein assay kit (Pierce, Rockford, Ill.). Equal amounts of total protein were used for IP or IB.

Data set [2] addresses T2, interaction between p110α E545K and IRS1 (Homo sapiens, UniProt P35568).
T2 construct: In KI DLD1 cells, IRS1 was co-immunoprecipitated with p110α E545K but not the WT p110α; endogenous in cells; host or cells: DLD1 p110α E545K 3×FLAG knock-in cells (rAAV gene targeting of the endogenous allele)
T2 sequence (P35568 1-1242): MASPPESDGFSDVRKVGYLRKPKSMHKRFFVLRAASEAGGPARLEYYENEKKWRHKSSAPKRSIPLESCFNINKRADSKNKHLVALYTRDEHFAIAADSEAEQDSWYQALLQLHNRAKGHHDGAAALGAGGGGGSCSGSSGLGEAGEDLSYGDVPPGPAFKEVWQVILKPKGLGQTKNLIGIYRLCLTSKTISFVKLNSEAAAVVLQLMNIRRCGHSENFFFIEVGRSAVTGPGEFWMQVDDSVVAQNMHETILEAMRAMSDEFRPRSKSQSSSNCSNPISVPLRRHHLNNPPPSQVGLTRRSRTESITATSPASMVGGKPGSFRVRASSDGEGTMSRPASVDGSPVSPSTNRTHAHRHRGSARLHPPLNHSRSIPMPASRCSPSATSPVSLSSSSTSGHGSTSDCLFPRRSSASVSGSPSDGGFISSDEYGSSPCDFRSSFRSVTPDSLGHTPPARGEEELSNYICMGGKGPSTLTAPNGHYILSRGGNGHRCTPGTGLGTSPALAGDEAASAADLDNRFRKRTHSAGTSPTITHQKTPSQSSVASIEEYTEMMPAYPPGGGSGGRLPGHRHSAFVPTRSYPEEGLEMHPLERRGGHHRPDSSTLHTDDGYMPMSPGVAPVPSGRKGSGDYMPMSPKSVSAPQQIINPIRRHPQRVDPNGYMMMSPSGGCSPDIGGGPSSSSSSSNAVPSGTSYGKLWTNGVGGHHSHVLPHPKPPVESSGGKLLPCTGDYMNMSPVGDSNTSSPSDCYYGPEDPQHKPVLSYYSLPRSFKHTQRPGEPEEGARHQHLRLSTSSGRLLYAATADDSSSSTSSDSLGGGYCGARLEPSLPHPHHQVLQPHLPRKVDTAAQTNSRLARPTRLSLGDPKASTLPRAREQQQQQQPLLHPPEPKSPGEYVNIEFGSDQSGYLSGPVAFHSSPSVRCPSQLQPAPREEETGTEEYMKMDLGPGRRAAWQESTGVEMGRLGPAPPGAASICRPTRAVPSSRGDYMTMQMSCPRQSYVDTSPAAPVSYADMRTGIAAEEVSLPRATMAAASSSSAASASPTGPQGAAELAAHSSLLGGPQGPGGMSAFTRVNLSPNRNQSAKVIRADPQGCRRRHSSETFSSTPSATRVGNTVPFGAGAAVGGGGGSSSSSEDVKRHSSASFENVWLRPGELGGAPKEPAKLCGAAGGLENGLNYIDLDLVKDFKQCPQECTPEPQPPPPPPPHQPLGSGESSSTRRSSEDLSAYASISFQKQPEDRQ
Kind of data set: Peptide competition assay in cell lysates (anti-FLAG immunoprecipitation, anti-IRS1 blot). As to conditions: peptide added into cell lysates of p110α E545K 3×FLAG KI cells. It counts as binding. The method, then:
FIGS. 3(A-M) illustrate: (A, B) Mapping peptides (P3, SEQ ID NO: 1; P4 SEQ ID NO: 2; P5, SEQ ID NO: 3; P6, SEQ ID NO: 4) derived from mutant p110α that inhibit interaction between IRS1 and p110α E545K. The indicated peptides were added into cell lysates made from the p110α E545K 3×FLAG KI cells. Cell lysates were immunoprecipitated with beads conjugated with anti-FLAG antibodies and then blotted with anti-IRS1 antibodies. (C) Immunoblots of cell lysates made from the p110α E545K 3×FLAG KI cells. Cell lysates were immunoprecipitated with beads conjugated with anti-FLAG antibodies and then blotted with the indicated antibodies. (D) Immunoblots of cell lysate of Myc-tagged IRS1 plasmid, which co-transfected an ABD domain deletion construct of the FLAG-tagged p110α E545K mutant (ΔABD), incubated with the indicated amount of stapled p110α mutant peptides, and then immunoprecipitated with anti-FLAG antibodies and blotted with the indicated antibodies. (J, K) Immunoblot and graph of purified recombinant p110α E545K mutant proteins mixed with the indicated components and quantified using an in vitro lipid kinase assay. (L, M) Immunoblots of the indicated cell lines serum-starved, stimulated with 1 μg/ml insulin for 30 min, and then treated with or without the indicated peptides. Cell lysates were blotted with the indicated antibodies. All error bars show mean±SEM. *p<0.05, **p<0.001, t test.
as §1
For in vitro peptide competition assay, the p110α mutant-FLAG-tagged cells were grown to 90% confluency, serum-starved overnight, and lysed as described previously. Peptides were then added to the cell lysates, incubated for 30 min at 4° C. and followed by immunoprecipitation assay.

The target in data set [3] is insulin receptor substrate 1 (IRS1) (UniProt P35568).
Data set [4] addresses T3, wild-type p110α (endogenous, untagged) (UniProt P42336 1-1068).
T3 construct: also called WT p110α
Kind of data set: pull-down with His-tagged IRS1 fragment from WT-only DLD1 lysates (FIG. 1B). An excerpt:
The altered interaction properties of the mutant forms of p110α prompted us to map the minimal essential regions of IRS1 required for its interaction with p110α E545K mutant protein. For this study, we made a series of 6×His-tagged IRS1 truncation constructs (FIGS. 1A and 1C). The His-tagged IRS1 proteins were first expressed in Eschericia coli and purified with Ni-NTA beads. Then the purified proteins were used to pull down p110α from DLD1 cells expressing either the WT p110α only or the p110α E545K mutant only. With these proteins, we first mapped the mutant p110α interaction domain to the middle part of IRS1 (amino acid [AA] 585-962) (FIG. 1B). This fragment contains three YxxM motifs that mediate the pY dependent IRS1-p85 protein interaction. We thus constructed an unphosphorylatable IRS1Y3F mutant fragment (FIG. 1A). […] In contrast, neither of the single region deletions could interrupt the IRS1 mutant p110α interaction. […] Finally, similar results were also observed when the IRS1D was expressed in p110α E545K 3×FLAG KI DLD1 cells.

T3 sequence (P42336 whole entry): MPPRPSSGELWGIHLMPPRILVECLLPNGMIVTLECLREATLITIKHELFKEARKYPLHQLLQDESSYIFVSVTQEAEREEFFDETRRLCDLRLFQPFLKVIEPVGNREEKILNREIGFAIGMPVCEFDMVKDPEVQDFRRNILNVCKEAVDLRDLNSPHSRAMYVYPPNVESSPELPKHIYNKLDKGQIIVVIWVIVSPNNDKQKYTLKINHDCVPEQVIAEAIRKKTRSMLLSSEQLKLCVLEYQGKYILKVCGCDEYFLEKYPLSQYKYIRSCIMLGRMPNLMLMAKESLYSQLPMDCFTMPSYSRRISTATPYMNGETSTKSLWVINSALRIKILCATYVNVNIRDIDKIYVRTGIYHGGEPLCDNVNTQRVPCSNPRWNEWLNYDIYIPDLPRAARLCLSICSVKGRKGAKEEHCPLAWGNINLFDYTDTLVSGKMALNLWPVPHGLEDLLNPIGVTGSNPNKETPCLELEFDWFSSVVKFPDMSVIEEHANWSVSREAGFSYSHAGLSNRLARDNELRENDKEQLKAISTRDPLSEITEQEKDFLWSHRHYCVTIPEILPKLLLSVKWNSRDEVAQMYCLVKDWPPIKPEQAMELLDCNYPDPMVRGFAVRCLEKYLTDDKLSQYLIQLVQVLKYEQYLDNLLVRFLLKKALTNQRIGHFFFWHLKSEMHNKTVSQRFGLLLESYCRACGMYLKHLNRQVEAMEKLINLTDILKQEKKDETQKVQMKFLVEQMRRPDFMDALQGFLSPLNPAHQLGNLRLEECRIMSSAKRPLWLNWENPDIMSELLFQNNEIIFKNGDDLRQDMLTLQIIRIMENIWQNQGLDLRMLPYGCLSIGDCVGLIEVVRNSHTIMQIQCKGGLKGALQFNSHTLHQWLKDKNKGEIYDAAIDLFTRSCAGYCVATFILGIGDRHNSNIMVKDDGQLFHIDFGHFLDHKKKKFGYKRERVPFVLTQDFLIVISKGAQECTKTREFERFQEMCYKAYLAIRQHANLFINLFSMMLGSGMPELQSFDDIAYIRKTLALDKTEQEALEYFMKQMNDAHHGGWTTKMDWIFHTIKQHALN

For the molecule “18-AA mutant peptide: linear 18-AA E545K mutant peptide corresponding to the C-terminal α-helical motif of p110α helical domain (SEITKQEKDFLWSHRHYC-OH; listed as Homo sapiens)”, in data set [1], the “disruption of IRS1-p110α E545K interaction in DLD1 cells” value is given as “neither the linear mutant peptide nor the stapled WT peptide affected the interaction”. Further, the entries for the “inhibition of the interaction between p110α E545K and IRS1” value (shortened to “inhibition”) in data set [2] and in data set [2] (listed as peptide corresponding to the C-terminal α-helical motif) were “moderate inhibition” and “inhibited”, respectively.

In the case of “30-AA mutant peptide: linear 30-AA p110α E545K mutant peptide forming two α-helix domains flanking the mutation site (EQLKAISTRDPLSEITKQEKDFLWSHRHYC-OH; listed as Homo sapiens)”, in data set [2], the “inhibition” value was “inhibited”.

Regarding “N-terminal 21-AA mutant peptide: linear N-terminal 21-AA mutant peptide corresponding to the N-terminal α-helical motif (EQLKAISTRDPLSEITKQEKD-OH; listed as Homo sapiens)”, the “inhibition” value in data set [2] was “no effect”.

Regarding “p110α E545K mutant (endogenous, untagged)”, in data set [3], the AKT phosphorylation entry is “the stapled mutant peptide, but not the WT counterpart, reduced AKT phosphorylation in mutant-only DLD1 cells”; the “AKT phosphorylation at both T308 and S473 residues” value was “treatment of cancer cell lines (DLD1, H460, and MDA-MB361) harboring p110α E545K ... with the stapled mutant peptide resulted in reduced AKT phosphorylation”.

Turning to “WT peptide: linear 30-AA wild-type p110α counterpart of the 30-AA E545K mutant peptide (EQLKAISTRDPLSEITEQEKDFLWSHRHYC-OH; listed as Homo sapiens) [reference compound]”, in data set [2], the “inhibition” value is recorded as “failed to cause any inhibition”.

B1: 6×His-tagged IRS1 middle fragment (AA 585-962) (other, UniProt P35568 585-962, looked up)
chain: EGLEMHPLERRGGHHRPDSSTLHTDDGYMPMSPGVAPVPSGRKGSGDYMPMSPKSVSAPQQIINPIRRHPQRVDPNGYMMMSPSGGCSPDIGGGPSSSSSSSNAVPSGTSYGKLWTNGVGGHHSHVLPHPKPPVESSGGKLLPCTGDYMNMSPVGDSNTSSPSDCYYGPEDPQHKPVLSYYSLPRSFKHTQRPGEPEEGARHQHLRLSTSSGRLLYAATADDSSSSTSSDSLGGGYCGARLEPSLPHPHHQVLQPHLPRKVDTAAQTNSRLARPTRLSLGDPKASTLPRAREQQQQQQPLLHPPEPKSPGEYVNIEFGSDQSGYLSGPVAFHSSPSVRCPSQLQPAPREEETGTEEYMKMDLGPGRRAAWQESTGVEM
notes: range 585-962; Expressed in E. coli BL21, purified on Ni-NTA beads; also called middle part of IRS1; middle fragment of IRS1; not shown: 6×His tag
For the molecule B1, in data set [4], the binding result is reported as “no binding”.
